The target in assay [1] is CD71 on primary hepatocytes. The assay is described as follows: cell-based or functional assay.
In assay [2] the target is recombinant mouse CD71 (Sino Biological Inc., Beijing, China) (mouse) (UniProt Q62351). The assay is described as follows: plate binding to coated recombinant mouse CD71, Alexa Fluor 488 labeled secondary antibody, fluorescence.
Assay [3] has the same target. Put plainly: plate binding to coated recombinant mouse CD71, RiboGreen fluorescence detection of the conjugate's siRNA.
Assay [4] has the same target. Put plainly: plate binding to coated recombinant mouse CD71; EC50 of the conjugate against that of clone R17.

UniProt Q62351, sequence (Q62351 89-763 limits assumed): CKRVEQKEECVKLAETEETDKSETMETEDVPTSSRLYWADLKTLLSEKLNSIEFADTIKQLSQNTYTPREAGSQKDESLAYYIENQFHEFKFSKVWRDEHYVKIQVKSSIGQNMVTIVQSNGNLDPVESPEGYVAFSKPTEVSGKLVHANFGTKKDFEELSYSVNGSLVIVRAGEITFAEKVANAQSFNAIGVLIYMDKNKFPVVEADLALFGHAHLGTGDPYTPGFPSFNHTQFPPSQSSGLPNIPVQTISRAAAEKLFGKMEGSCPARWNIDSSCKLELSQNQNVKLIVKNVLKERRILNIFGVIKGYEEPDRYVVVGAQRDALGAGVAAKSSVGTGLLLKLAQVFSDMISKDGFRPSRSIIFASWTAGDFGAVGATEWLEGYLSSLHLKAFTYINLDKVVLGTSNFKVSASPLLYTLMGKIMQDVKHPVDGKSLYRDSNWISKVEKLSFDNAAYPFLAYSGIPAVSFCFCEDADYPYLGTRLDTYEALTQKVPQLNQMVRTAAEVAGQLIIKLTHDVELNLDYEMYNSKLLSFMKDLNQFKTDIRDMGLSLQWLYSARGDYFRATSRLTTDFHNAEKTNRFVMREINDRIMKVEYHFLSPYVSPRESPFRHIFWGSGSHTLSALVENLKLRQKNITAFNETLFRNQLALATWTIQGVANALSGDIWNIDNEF

In assay [1], “clone R17 Fab'-siApoB conjugate linked with the maleimide linker” displayed an EC50 in inhibiting of ApoB gene expression (primary hepatocytes, quantitative PCR) of 11 nM and a silencing of ApoB at 900 nM (primary hepatocytes, quantitative PCR) of 46%.

For “anti-CD71 antibody (clone R17 217.1.3) purchased from Bio X Cell”, in assay [2], the EC50 (usually the concentration giving half of the maximal effect) was 1.5 nM.

Consider “clone R17 Fab'-siHPRT conjugate linked with the maleimide linker”, for which the EC50 in assay [3] came out at 29 nM. For the same substance, the fold difference of EC50 between clone R17 and the conjugate in assay [4] came to 20 fold.

The values above are taken from patent US20250082772A1.
